Here are results for one substance from PMC10279719 (Nature Communications, 2023).

Assay [1] deals with 14-3-3ɣ. Briefly: SPR, 14-3-3ɣ binding to immobilised PEAK proteins. Also on record: species or system human. As to conditions: 14-3-3ɣ analyte 0.46–1000 nM, multi-cycle, over immobilised biotinylated PEAK protein; Biacore 8K+, 20 °C; KD only an estimate (bivalent analyte model); N = 3. The protocol:
PEAK proteins and adapters proteins (full length or individual domains) were biotinylated using EZ-Link™ NHS-PEG4-Biotin (Thermo Fisher) at a 1:1 molar ratio (100 µM) for 1 h at room temperature, then excess biotin was removed by buffer exchange using a Zeba™ Spin Desalting Column (Thermo Fisher) into HBS-T buffer (20 mM HEPES pH 7.4, 150 mM NaCl, 1 mM TCEP).
SPR binding studies of PEAK proteins to full length CrkII/Grb2 and sub-domains were performed using a Biacore 8K+ Instrument (Cytiva) and analyzed using Biacore Insight Evaluation Software (v. 3.0.12.15655). […] Biotinylated PEAK proteins (with or without Src phosphorylation; 500 nM in HBS-TP) were immobilized using a biotin CAPture kit (Cytiva) in HBS-TP running buffer at 20 °C. Binding studies and steady-state data analysis were performed as described for CrkII^NSH3 with the inclusion of an additional surface regeneration step (60 s injection of 1 M NaCl) between cycles. For Grb2^FL, Grb2^SH2, CrkII^SH2, CrkII^FL monomer and CrkII^FL dimer, to reduce nonspecific interactions the HBS-TP running buffer was supplemented with additional NaCl to a final concentration of 500 mM.
Binding studies for 14-3-3ɣ were undertaken in the same way in multi cycle mode (8 point, 3-fold serial dilution series, 0.46–1000 nM, 60 s contact time, 300 s dissociation).

Assay [2] has as its target T1, CrkII^FL monomer (Homo sapiens, UniProt P46108).
T1 construct: full length CrkII (CrkII^FL; UniProt P46108-1, residues 1–330); 8-His tag with TEV protease cleavage site (N); made in house; host or cells: E. coli C41 (DE3)
Briefly: SPR, CrkII FL monomer binding to immobilised PEAK proteins. The settings on record: interactor as analyte over biotinylated PEAK protein (biotin CAPture); Biacore 8K+, HBS-TP with 500 mM NaCl, 20 °C; steady-state fit; mean ± SD (N = 2). The protocol: (§1) SPR binding studies of PEAK PRM peptides to CrkII^NSH3 were performed using a Biacore S200 Instrument (Cytiva). Purified CrkII^NSH3 was diluted to 5 µg ml^−1 in 10 mM sodium acetate pH 4.0 and amine coupled at 25 °C to a Series S CM5 sensor chip, in HBS-N running buffer (20 mM HEPES pH 7.4, 150 mM NaCl) to a final immobilization level of 1100–1400 response units (RU), followed by surface deactivation using 1 M ethanolamine. A blank activation/deactivation was used for the reference surface. Peptide binding studies were performed at 20 °C in HBS-TP running buffer (20 mM HEPES pH 7.4, 150 mM NaCl, 1 mM TCEP, 0.005% (v/v) Tween-P20). […] Peptide stocks were further diluted to in running buffer to 10 or 20 µM and prepared as a 11-point concentration series (2-fold serial dilution, […] for PEAK PRM peptides, or 20 µM–20 nM for PEAK tandem motif peptides). Samples were injected in a multi-cycle run (flow rate 30 µl min^−1, contact time of 60 s, dissociation 120 s) without regeneration. Sensorgrams were double referenced, and steady-state binding data fitted using a 1:1 binding model using Biacore S200 Evaluation Software (Cytiva, v. 1.1).
(§2) SPR binding studies of PEAK proteins to full length CrkII/Grb2 and sub-domains were performed using a Biacore 8K+ Instrument (Cytiva) and analyzed using Biacore Insight Evaluation Software (v. 3.0.12.15655). […]
(SPR reads the build-up and loss of mass on a sensor chip optically.)

Assay [3] deals with T2, CrkII^NSH3 (Homo sapiens, UniProt P46108).
T2 construct: CrkII^NSH3; UniProt P46108-1, residues 134–191; 8-His tag with TEV protease cleavage site (N); made in house; host or cells: E. coli C41 (DE3)
Briefly: SPR, CrkII NSH3 binding to immobilised PEAK proteins. The settings on record: read-out: CrkII NSH3 SPR KD; interactor as analyte over biotinylated PEAK protein captured with biotin CAPture kit; Biacore 8K+, HBS-TP, 20 °C; steady-state fit; mean ± SD (N = 2); read-out: CrkII-SH2 SPR KD. Here is the method: as §1
(§3) SPR binding studies of PEAK proteins to full length CrkII/Grb2 and sub-domains were performed using a Biacore 8K+ Instrument (Cytiva) and analyzed using Biacore Insight Evaluation Software (v. 3.0.12.15655). […] Binding studies and steady-state data analysis were performed as described for CrkII^NSH3 with the inclusion of an additional surface regeneration step (60 s injection of 1 M NaCl) between cycles.

The target in assay [4] is T3, CrkII^SH2 (Homo sapiens, UniProt P46108).
T3 construct: CrkII^SH2; UniProt P46108-1, residues 6–120; 8-His tag with TEV protease cleavage site (N); made in house; host or cells: E. coli C41 (DE3)
Description: SPR, CrkII SH2 binding to immobilised PEAK proteins. The settings on record: interactor as analyte over biotinylated PEAK protein (biotin CAPture); Biacore 8K+, HBS-TP with 500 mM NaCl, 20 °C; steady-state fit; mean ± S.E.M. (N = 3). Here is the method: as §1, §3

For assay [5], the target named is T4, CrkII^FL dimer (Homo sapiens, UniProt P46108).
T4 construct: full length CrkII (CrkII^FL; UniProt P46108-1, residues 1–330); 8-His tag with TEV protease cleavage site (N); made in house; host or cells: E. coli C41 (DE3)
Description: SPR, CrkII FL dimer binding to immobilised PEAK proteins. The settings on record: interactor as analyte over biotinylated PEAK protein (biotin CAPture); Biacore 8K+, HBS-TP with 500 mM NaCl, 20 °C; steady-state fit; mean ± SD (N = 2). The protocol:
as §1, §2

T2 sequence (P46108 134-191): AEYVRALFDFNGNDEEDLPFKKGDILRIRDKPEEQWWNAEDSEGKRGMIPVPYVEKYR
T3 sequence (P46108 6-120): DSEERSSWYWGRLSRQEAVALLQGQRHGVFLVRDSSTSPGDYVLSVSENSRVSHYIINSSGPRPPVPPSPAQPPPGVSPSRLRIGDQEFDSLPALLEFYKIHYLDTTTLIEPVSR
T4 sequence (P46108 whole entry, the tested form may be a part): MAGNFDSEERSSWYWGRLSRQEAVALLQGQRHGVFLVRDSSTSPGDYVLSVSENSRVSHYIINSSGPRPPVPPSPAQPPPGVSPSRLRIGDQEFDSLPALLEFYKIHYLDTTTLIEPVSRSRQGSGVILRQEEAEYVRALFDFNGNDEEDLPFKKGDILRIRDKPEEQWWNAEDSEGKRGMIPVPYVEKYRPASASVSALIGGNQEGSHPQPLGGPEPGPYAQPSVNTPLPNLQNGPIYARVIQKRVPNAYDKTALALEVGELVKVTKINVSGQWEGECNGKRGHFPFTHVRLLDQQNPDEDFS
T1 sequence (P46108 whole entry, the tested form may be a part): as above

Consider “PEAK3-FL E.coli (+ Src phosphorylation): E. coli PEAK3 (1–473) phosphorylated with recombinant Src kinase”, for which the “SPR KD, 14-3-3ɣ” value in assay [1] is given as “No binding”. Further, the Kd was 2.6 µM in assay [2], 13.1 µM in assay [3] and 2.11 µM in assay [5]. Also, in assay [4], the “SPR KD, CrkII-SH2” value is “No binding”.

What is called Kd is the equilibrium constant for the complex coming apart.
